Paper doi:10.1101/787473, “C9orf72 arginine-rich dipeptide repeat proteins disrupt importin β-mediated nuclear import” (bioRxiv, 2019)
No end group written: not given here.

B1: PR10, synthetic poly-proline-arginine 10-mer dipeptide repeat protein with C-terminal lysine and cysteine (peptide)
peptide: PRPRPRPRPRPRPRPRPRPRKC
notes: C9orf72 poly-PR dipeptide repeat, ten repeats, with C-terminal K (solubility) and C (labelling); Unlabelled peptide; The C-terminal KC was added by the authors; also called R-DPR; source: synthetic peptide (Genscript; 21st Century Biochemicals)
B2: AF488-labeled GR10 (peptide)
peptide: GRGRGRGRGRGRGRGRGRGRKC(Alexa Fluor 488 C5‑maleimide)
notes: C9orf72 poly-GR dipeptide repeat, ten repeats, with C-terminal K and C; also called AF488-GR10; AF488-labeled R-DPR; source: synthetic peptide (Genscript)
B3: GR10, synthetic poly-glycine-arginine 10-mer dipeptide repeat protein with C-terminal lysine and cysteine (peptide)
peptide: GRGRGRGRGRGRGRGRGRGRKC
notes: C9orf72 poly-GR dipeptide repeat, ten repeats, with C-terminal K (solubility) and C (labelling); Unlabelled peptide; The C-terminal KC was added by the authors; also called poly-GR; R-DPR; source: synthetic peptide (Genscript; 21st Century Biochemicals)
B4: AF488-labeled PR10 (peptide)
peptide: PRPRPRPRPRPRPRPRPRPRKC(Alexa Fluor 488 C5‑maleimide)
notes: C9orf72 poly-PR dipeptide repeat, ten repeats, with C-terminal K and C; also called AF488-PR10; AF488-labeled R-DPR; source: synthetic peptide (Genscript)

Tests used:
Conditions in all cases: both partners purified
[1] = biological target: T1, full length human importin β (KPNB1), expressed from pET30a-WT Importin β (pKW485) (human, UniProt Q14974 1-876); experiment: FRET or BRET; displacement of importin β from the Rango FRET sensor in solution: 20 nM Rango + 50 nM importin β in TBS pH 7.4, 0.005% Tween-20, increasing concentrations of DPR 10-mers or ZZ-RanQ69L-GTP; acceptor/donor emission ratio, fit to one-site binding model
T1 construct: importin β (KPNB1), human, wild type, full length; also called unlabeled importin β

[2] = biological target: T2, GST-tagged S. cerevisiae Nup100(1-610) (S. cerevisiae, UniProt Q02629 1-610); experiment: bead halo assay; GST-fusion yeast FG- and GLFG-domain baits on glutathione beads; AF488-labeled DPRs in binding buffer, without added importin β; rim vs. background ratio against the Nup116 F>A mutant
T2 construct: Nup100, S. cerevisiae, residues 1-610 (GLFG domain fragment); Bait on glutathione beads; also called FG-domains of Nup100; Nup100 fragments; source: E. coli T7 Shuffle, purified (glutathione-sepharose)

[3] = biological target: T3, GST-tagged S. cerevisiae Nup100(1-307) (S. cerevisiae, UniProt Q02629 1-307); experiment: as above
T3 construct: Nup100, S. cerevisiae, residues 1-307 (GLFG domain fragment); Bait on glutathione beads; also called FG-domains of Nup100; Nup100 fragments; source: E. coli T7 Shuffle, purified (glutathione-sepharose)

[4] = biological target: T4, biotinylated WT importin β-Avitag (pKW1982; pK1099) (human, UniProt Q14974 1-876, biotin on the Avitag (co-expressed biotin ligase, 100 µM D-biotin)); experiment: bead halo assay; biotinylated bait (importin β-Avitag or BSA) on neutravidin beads; fluorescent prey (AF488-DPR 200 nM, Rango) in binding buffer (20 mM HEPES pH 7.4, 150 mM KOAc, 2 mM Mg(OAc)2, 1 mM DTT, 0.1% Tween-20) with EHBN; room temperature, at least 30 min; confocal rim vs. background ratio
T4 construct: importin β (KPNB1), human, wild type; called full-length in the results of the bead halo assay; Immobilised on neutravidin beads by the biotinylated Avitag; also called biotinylated importin β; full-length importin β-coated beads; source: E. coli BL21DE3 co-transfected with pAC-biotin ligase, purified (Ni-NTA)
T4 sequence (Q14974 whole entry): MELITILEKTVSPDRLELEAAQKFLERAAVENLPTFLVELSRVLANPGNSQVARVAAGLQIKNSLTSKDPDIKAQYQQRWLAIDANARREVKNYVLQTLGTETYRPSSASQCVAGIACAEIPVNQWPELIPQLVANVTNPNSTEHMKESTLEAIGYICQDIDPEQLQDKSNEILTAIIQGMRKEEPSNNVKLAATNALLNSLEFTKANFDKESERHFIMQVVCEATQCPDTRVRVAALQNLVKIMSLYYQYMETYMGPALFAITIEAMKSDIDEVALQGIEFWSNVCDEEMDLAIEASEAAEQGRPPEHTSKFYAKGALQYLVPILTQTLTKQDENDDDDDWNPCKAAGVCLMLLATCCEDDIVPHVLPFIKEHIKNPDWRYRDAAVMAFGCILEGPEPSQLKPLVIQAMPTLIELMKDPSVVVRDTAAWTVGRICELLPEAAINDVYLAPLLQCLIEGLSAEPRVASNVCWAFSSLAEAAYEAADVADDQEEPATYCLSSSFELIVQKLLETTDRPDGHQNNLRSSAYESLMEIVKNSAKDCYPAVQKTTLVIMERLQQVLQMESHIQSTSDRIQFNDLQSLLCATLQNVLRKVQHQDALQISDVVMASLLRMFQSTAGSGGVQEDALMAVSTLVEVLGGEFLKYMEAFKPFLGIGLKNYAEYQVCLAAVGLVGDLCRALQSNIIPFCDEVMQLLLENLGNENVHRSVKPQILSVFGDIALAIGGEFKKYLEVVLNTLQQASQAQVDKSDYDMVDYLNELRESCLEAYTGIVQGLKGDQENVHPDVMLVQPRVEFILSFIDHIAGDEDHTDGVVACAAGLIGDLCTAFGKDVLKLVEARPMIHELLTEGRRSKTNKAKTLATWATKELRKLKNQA

T1 sequence (Q14974 whole entry): as above
T3 sequence (Q02629 1-307): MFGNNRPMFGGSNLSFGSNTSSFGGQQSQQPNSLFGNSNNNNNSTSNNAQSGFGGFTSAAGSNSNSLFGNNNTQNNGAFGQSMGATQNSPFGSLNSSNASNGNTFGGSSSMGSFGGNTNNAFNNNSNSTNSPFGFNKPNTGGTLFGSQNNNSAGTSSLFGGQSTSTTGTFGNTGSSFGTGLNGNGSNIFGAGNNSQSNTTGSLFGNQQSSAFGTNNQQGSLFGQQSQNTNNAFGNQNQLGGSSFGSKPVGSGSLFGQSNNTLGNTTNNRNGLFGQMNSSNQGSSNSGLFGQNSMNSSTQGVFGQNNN
T2 sequence (Q02629 1-610): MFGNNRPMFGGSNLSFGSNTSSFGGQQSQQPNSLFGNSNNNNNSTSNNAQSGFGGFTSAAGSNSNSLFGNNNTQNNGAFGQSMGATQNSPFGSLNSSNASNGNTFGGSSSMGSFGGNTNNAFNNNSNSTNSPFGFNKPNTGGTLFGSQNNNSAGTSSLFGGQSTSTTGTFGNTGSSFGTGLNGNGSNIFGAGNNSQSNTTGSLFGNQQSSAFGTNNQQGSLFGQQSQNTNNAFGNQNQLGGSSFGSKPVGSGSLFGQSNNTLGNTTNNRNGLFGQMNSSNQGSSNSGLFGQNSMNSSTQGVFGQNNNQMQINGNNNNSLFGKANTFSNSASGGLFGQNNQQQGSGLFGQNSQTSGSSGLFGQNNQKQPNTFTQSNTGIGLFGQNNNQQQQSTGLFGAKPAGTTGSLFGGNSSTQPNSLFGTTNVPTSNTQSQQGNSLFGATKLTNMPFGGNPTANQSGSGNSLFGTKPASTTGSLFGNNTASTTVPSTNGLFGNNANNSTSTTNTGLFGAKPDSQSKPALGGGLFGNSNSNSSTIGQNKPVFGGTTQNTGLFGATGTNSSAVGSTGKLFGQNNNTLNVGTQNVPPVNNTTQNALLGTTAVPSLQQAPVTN

| Binder | binding result [1] | binding result [2] | binding result [3] | halo intensity (rim vs. background) against control beads [4] [fold] |
| --- | --- | --- | --- | --- |
| B1 | binds | – | – | – |
| B2 | – | binds | binds | ~2 |
| B3 | binds | – | – | – |
| B4 | – | binds | binds | ~2 |
